Assay results reported in publication PMC12683673 (RSC Chemical Biology, 2025).

Columns and labels:
SEC = target: the molecule itself; assay: SEC
[1] = target: the molecule itself; assay: negative-stain electron microscopy

B1: ClpP protease from Thermus thermophilus (tetradecameric ClpP14, 300 kDa) (enzyme)
chain: not shown
SEC
  stoichiometry N: 14

B2: ClpX^ΔN unfoldase from Thermus thermophilus (lacks the first 52 residues) (domain or fragment)
chain: not shown
[1]
  stoichiometry N: 6
